Assay results from the supplement of paper PMC5998384.

Assays:
[1] = test system: HeLa Kyoto; assay: solubility change mitosis vs G1/S (difference of NP-40 vs SDS log2 ratios) (log2 ratio difference); higher = more soluble in mitosis
[2] = test system: HeLa Kyoto; assay: melting temperature (median over replicates), in situ; higher = more thermally stable
[3] = test system: HeLa Kyoto; assay: solubility in G1/S (NP-40 vs SDS abundance) (log2 ratio); higher = more soluble; settings: cell cycle stage: G1/S
[4] = test system: HeLa Kyoto; assay: thermal stability score vs G1/S (z-score of summed log2 fold changes over temperatures); higher = more thermally stable than in G1/S
[5] = cell cycle stage: early G1 (4.5 h after nocodazole release)
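For melting temperature (median over replicates), in situ in this document: HeLa Kyoto cells synchronized by double thymidine or nocodazole block, proteins quantified by TMT10plex mass spectrometry, three independent biological replicates.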
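For solubility change mitosis vs G1/S (difference of NP-40 vs SDS log2 ratios) in this document: synchronized HeLa Kyoto cells (double thymidine block for G1/S, nocodazole release for mitosis), protein amounts in NP-40 versus SDS lysates quantified by mass spectrometry, three biological replicates.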
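For solubility in G1/S (NP-40 vs SDS abundance) in this document: HeLa Kyoto cells arrested at G1/S by double thymidine block, proteins quantified by TMT10plex mass spectrometry in mild NP-40 versus SDS extracts, three biological replicates.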
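For thermal stability score vs G1/S (z-score of summed log2 fold changes over temperatures) in this document: synchronized HeLa Kyoto cells, proteins quantified by TMT10plex mass spectrometry, three biological replicates, mitosis taken 0.5 h after nocodazole release, G1/S directly after double thymidine block.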

Chain of LMO7 (chain, as listed by the source): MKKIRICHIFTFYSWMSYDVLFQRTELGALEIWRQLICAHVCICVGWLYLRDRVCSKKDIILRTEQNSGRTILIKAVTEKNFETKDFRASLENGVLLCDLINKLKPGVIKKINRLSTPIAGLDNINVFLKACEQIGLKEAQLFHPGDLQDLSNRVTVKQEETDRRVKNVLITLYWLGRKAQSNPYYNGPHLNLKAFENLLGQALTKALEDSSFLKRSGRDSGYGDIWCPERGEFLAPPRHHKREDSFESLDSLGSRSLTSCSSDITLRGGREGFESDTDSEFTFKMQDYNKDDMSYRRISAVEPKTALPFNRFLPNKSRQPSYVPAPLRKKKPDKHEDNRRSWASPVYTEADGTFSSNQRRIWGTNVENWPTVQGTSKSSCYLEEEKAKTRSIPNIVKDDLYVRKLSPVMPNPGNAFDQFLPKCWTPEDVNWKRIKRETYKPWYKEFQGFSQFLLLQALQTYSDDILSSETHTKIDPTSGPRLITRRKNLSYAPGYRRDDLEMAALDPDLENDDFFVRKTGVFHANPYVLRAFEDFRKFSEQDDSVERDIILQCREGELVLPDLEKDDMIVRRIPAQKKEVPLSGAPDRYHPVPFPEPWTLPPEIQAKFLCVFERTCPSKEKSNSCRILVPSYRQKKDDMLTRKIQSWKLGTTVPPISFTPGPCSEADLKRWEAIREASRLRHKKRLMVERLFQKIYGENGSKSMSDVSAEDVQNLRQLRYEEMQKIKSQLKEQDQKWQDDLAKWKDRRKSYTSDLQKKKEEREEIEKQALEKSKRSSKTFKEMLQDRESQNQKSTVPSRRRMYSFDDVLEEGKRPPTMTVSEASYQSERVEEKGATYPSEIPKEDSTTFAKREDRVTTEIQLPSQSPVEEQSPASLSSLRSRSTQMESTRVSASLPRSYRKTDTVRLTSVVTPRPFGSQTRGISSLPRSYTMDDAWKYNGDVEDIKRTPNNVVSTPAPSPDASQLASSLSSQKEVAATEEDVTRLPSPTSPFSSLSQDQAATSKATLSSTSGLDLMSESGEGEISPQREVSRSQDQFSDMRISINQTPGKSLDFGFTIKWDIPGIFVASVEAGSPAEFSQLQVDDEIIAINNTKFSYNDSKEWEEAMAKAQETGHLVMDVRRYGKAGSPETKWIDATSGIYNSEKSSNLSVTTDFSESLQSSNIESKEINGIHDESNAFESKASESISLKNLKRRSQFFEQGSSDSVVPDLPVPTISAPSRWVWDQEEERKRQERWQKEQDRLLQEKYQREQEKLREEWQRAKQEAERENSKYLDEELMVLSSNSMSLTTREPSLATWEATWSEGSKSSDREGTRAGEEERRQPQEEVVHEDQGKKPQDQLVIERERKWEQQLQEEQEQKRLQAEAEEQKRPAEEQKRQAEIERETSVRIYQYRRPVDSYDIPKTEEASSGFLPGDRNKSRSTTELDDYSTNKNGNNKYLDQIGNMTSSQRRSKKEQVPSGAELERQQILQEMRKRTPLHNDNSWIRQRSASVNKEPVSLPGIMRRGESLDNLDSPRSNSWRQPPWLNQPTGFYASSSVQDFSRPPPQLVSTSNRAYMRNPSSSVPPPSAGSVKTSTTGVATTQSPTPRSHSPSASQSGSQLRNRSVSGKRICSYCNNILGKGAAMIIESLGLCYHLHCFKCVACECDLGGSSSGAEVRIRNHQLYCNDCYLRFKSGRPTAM

Substance | solubility change mitosis (log2) [1] | melting temperature ([2]; cell cycle stage: G1/S) [°C] | melting temperature ([2]; cell cycle stage: mitosis) [°C] | solubility in G1/S (log2) [3] | thermal stability score [4, 5] | thermal stability score ([4]; cell cycle stage: mitosis)
MASTDYSTYSQAAAQQGYSAYTAQPTQGYAQTTQAYGQQSYGTYGQPTDVSYTQAQTTATYGQTAYATSYGQPPTGYTTPTAPQAYSQPVQGYGTGAYDTTTATVTTTQASYAAQSAYGTQPAYPAYGQQPAATAPTRPQDGNKPTETSQPQSSTGGYNQPSLGYGQSNYSYPQVPGSYPMQPVTAPPSYPPTSYSSTQPTSYDQSSYSQQNTYGQPSSYGQQSSYGQQSSYGQQPPTSYPPQTGSYSQAPSQYSQQSSSYGQQSSFRQDHPSSMGVYGQESGGFSGPGENRSMSGPDNRGRGRGGFDRGGMSRGGRGGGRGGMGSAGERGGFNKPGGPMDEGPDLDLGPPVDPDEDSDNSAIYVQGLNDSVTLDDLADFFKQCGVVKMNKRTGQPMIHIYLDKETGKPKGDATVSYEDPPTAKAAVEWFDGKDFQGSKLKVSLARKKPPMNSMRGGLPPREGRGMPPPLRGGPGGPGGPGGPMGRMGGRGGDRGGFPPRGPRGSRGNPSGGGNVQHRAGDWQCPNPGCGNQNFAWRTECNQCKAPKPEGFLPPPFPPPGGDRGRGGPGGMRGGRGGLMDRGGPGGMFRGGRGGDRGGFRGGRGMDRGGFGGGRRGGPGGPPGPLMEQMGGRRGGRGGPGKMDKGEHRQERRDRPY [EWSR1] | 0.157 | 55.6 | 55.8 | 0.0308 | 0.0358 | 0.453
MKPKLMYQELKVPAEEPANELPMNEIEAWKAAEKKARWVLLVLILAVVGFGALMTQLFLWEYGDLHLFGPNQRPAPCYDPCEAVLVESIPEGLDFPNASTGNPSTSQAWLGLLAGAHSSLDIASFYWTLTNNDTHTQEPSAQQGEEVLRQLQTLAPKGVNVRIAVSKPSGPQPQADLQALLQSGAQVRMVDMQKLTHGVLHTKFWVVDQTHFYLGSANMDWRSLTQVKELGVVMYNCSCLARDLTKIFEAYWFLGQAGSSIPSTWPRFYDTRYNQETPMEICLNGTPALAYLASAPPPLCPSGRTPDLKALLNVVDNARSFIYVAVMNYLPTLEFSHPHRFWPAIDDGLRRATYERGVKVRLLISCWGHSEPSMRAFLLSLAALRDNHTHSDIQVKLFVVPADEAQARIPYARVNHNKYMVTERATYIGTSNWSGNYFTETAGTSLLVTQNGRGGLRSQLEAIFLRDWDSPYSHDLDTSADSVGNACRLL [PLD3] | -0.0637 | 55.7 | 55.3 | 0.309 | -2.87 | -4.26
MGEIKVSPDYNWFRGTVPLKKIIVDDDDSKIWSLYDAGPRSIRCPLIFLPPVSGTADVFFRQILALTGWGYRVIALQYPVYWDHLEFCDGFRKLLDHLQLDKVHLFGASLGGFLAQKFAEYTHKSPRVHSLILCNSFSDTSIFNQTWTANSFWLMPAFMLKKIVLGNFSSGPVDPMMADAIDFMVDRLESLGQSELASRLTLNCQNSYVEPHKIRDIPVTIMDVFDQSALSTEAKEEMYKLYPNARRAHLKTGGNFPYLCRSAEVNLYVQIHLLQFHGTKYAAIDPSMVSAEELEVQKGSLGISQEEQ [SPG21] | -0.157 | 49.5 | 49 | 0.00691 | 0.11 | 0.524
SRGAP1 | -0.1 | 50.5 | 51.2 | 0.2 | 0.466 | 0.773
MLSQVYRCGFQPFNQHLLPWVKCTTVFRSHCIQPSVIRHVRSWSNIPFITVPLSRTHGKSFAHRSELKHAKRIVVKLGSAVVTRGDECGLALGRLASIVEQVSVLQNQGREMMLVTSGAVAFGKQRLRHEILLSQSVRQALHSGQNQLKEMAIPVLEARACAAAGQSGLMALYEAMFTQYSICAAQILVTNLDFHDEQKRRNLNGTLHELLRMNIVPIVNTNDAVVPPAEPNSDLQGVNVISVKDNDSLAARLAVEMKTDLLIVLSDVEGLFDSPPGSDDAKLIDIFYPGDQQSVTFGTKSRVGMGGMEAKVKAALWALQGGTSVVIANGTHPKVSGHVITDIVEGKKVGTFFSEVKPAGPTVEQQGEMARSGGRMLATLEPEQRAEIIHHLADLLTDQRDEILLANKKDLEEAEGRLAAPLLKRLSLSTSKLNSLAIGLRQIAASSQDSVGRVLRRTRIAKNLELEQVTVPIGVLLVIFESRPDCLPQVAALAIASGNGLLLKGGKEAAHSNRILHLLTQEALSIHGVKEAVQLVNTREEVEDLCRLDKMIDLIIPRGSSQLVRDIQKAAKGIPVMGHSEGICHMYVDSEASVDKVTRLVRDSKCEYPAACNALETLLIHRDLLRTPLFDQIIDMLRVEQVKIHAGPKFASYLTFSPSEVKSLRTEYGDLELCIEVVDNVQDAIDHIHKYGSSHTDVIVTEDENTAEFFLQHVDSACVFWNASTRFSDGYRFGLGAEVGISTSRIHARGPVGLEGLLTTKWLLRGKDHVVSDFSEHGSLKYLHENLPIPQRNTN [ALDH18A1] | -0.0142 | 52.5 | 52.1 | -0.0382 | -0.326 | -2.31
MDEQALLGLNPNADSDFRQRALAYFEQLKISPDAWQVCAEALAQRTYSDDHVKFFCFQVLEHQVKYKYSELTTVQQQLIRETLISWLQAQMLNPQPEKTFIRNKAAQVFALLFVTEYLTKWPKFFFDILSVVDLNPRGVDLYLRILMAIDSELVDRDVVHTSEEARRNTLIKDTMREQCIPNLVESWYQILQNYQFTNSEVTCQCLEVVGAYVSWIDLSLIANDRFINMLLGHMSIEVLREEACDCLFEVVNKGMDPVDKMKLVESLCQVLQSAGFFSIDQEEDVDFLARFSKLVNGMGQSLIVSWSKLIKNGDIKNAQEALQAIETKVALMLQLLIHEDDDISSNIIGFCYDYLHILKQLTVLSDQQKANVEAIMLAVMKKLTYDEEYNFENEGEDEAMFVEYRKQLKLLLDRLAQVSPELLLASVRRVFSSTLQNWQTTRFMEVEVAIRLLYMLAEALPVSHGAHFSGDVSKASALQDMMRTLVTSGVSSYQHTSVTLEFFETVVRYEKFFTVEPQHIPCVLMAFLDHRGLRHSSAKVRSRTAYLFSRFVKSLNKQMNPFIEDILNRIQDLLELSPPENGHQSLLSSDDQLFIYETAGVLIVNSEYPAERKQALMRNLLTPLMEKFKILLEKLMLAQDEERQASLADCLNHAVGFASRTSKAFSNKQTVKQCGCSEVYLDCLQTFLPALSCPLQKDILRSGVRTFLHRMIICLEEEVLPFIPSASEHMLKDCEAKDLQEFIPLINQITAKFKIQVSPFLQQMFMPLLHAIFEVLLRPAEENDQSAALEKQMLRRSYFAFLQTVTGSGMSEVIANQGAENVERVLVTVIQGAVEYPDPIAQKTCFIILSKLVELWGGKDGPVGFADFVYKHIVPACFLAPLKQTFDLADAQTVLALSECAVTLKTIHLKRGPECVQYLQQEYLPSLQVAPEIIQEFCQALQQPDAKVFKNYLKVFFQRAKP [XPOT] | -0.226 | 49.5 | 50.1 | -0.059 | 1.65 | 3.04
MTDAAVSFAKDFLAGGVAAAISKTAVAPIERVKLLLQVQHASKQITADKQYKGIIDCVVRIPKEQGVLSFWRGNLANVIRYFPTQALNFAFKDKYKQIFLGGVDKRTQFWLYFAGNLASGGAAGATSLCFVYPLDFARTRLAADVGKAGAEREFRGLGDCLVKIYKSDGIKGLYQGFNVSVQGIIIYRAAYFGIYDTAKGMLPDPKNTHIVISWMIAQTVTAVAGLTSYPFDTVRRRMMMQSGRKGTDIMYTGTLDCWRKIARDEGGKAFFKGAWSNVLRGMGGAFVLVLYDEIKKYT [SLC25A5] | -0.12 | 56.9 | 55.9 | -0.308 | -2.25 | -3.52
MNTAPSRPSPTRRDPYGFGDSRDSRRDRSPIRGSPRREPRDGRNGRDARDSRDIRDPRDLRDHRHSRDLRDHRDSRSVRDVRDVRDLRDFRDLRDSRDFRDQRDPMYDRYRDMRDSRDPMYRREGSYDRYLRMDDYCRRKDDSYFDRYRDSFDGRGPPGPESQSRAKERLKREERRREELYRQYFEEIQRRFDAERPVDCSVIVVNKQTKDYAESVGRKVRDLGMVVDLIFLNTEVSLSQALEDVSRGGSPFAIVITQQHQIHRSCTVNIMFGTPQEHRNMPQADAMVLVARNYERYKNECREKEREEIARQAAKMADEAILQERERGGPEEGVRGGHPPAIQSLINLLADNRYLTAEETDKIINYLRERKERLMRSSTDSLPGPISRQPLGATSGASLKTQPSSQPLQSGQVLPSATPTPSAPPTSQQELQAKILSLFNSGTVTANSSSASPSVAAGNTPNQNFSTAANSQPQQRSQASGNQPPSILGQGGSAQNMGPRPGAPSQGLFGQPSSRLAPASNMTSQRPVSSTGINFDNPSVQKALDTLIQSGPALSHLVSQTTAQMGQPQAPMGSYQRHY [NCOA5] | 0.489 | 49.9 | 49.1 | -0.619 | 0.658 | 1.68
LMO7 | 0.694 | 51 | 51.1 | -1.14 | 3.45 | 3.47
MANRGPAYGLSREVQQKIEKQYDADLEQILIQWITTQCRKDVGRPQPGRENFQNWLKDGTVLCELINALYPEGQAPVKKIQASTMAFKQMEQISQFLQAAERYGINTTDIFQTVDLWEGKNMACVQRTLMNLGGLAVARDDGLFSGDPNWFPKKSKENPRNFSDNQLQEGKNVIGLQMGTNRGASQAGMTGYGMPRQIL [TAGLN2] | 0.461 | 50.9 | 51.7 | 0.348 | -1.52 | -1.77
